For the assay, the target named is TgAMA1, intact full-length integral membrane form (Toxoplasma gondii (endogenous in RH strain parasites)) (UniProt B6KAM0).
Sequence of UniProt B6KAM0 (B6KAM0 67-569): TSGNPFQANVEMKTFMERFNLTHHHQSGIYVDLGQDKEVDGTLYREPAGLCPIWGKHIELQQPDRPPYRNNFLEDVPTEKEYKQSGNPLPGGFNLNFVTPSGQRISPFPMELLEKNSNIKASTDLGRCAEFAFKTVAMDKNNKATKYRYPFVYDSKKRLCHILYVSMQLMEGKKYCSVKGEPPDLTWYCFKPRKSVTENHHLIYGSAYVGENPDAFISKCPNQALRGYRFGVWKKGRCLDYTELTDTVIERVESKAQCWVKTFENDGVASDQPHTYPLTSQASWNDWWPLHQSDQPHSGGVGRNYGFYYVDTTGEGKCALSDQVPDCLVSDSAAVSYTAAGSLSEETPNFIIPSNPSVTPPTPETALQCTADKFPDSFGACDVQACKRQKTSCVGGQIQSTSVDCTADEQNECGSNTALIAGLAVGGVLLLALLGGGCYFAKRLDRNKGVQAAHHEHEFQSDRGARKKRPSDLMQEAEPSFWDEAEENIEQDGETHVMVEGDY

In turn, “GST-domain 3 (D3) of TgRON2 (domain or fragment)” had a decrease in invasion efficiency of RHΔama1/AMA1-myc parasites (about 10% of wild-type TgAMA1 level) after pre-incubation with 2.5-5 µM GST-D3, relative to buffer control of 87%.

The values above are taken from article PMC3037364.
